± gives the standard deviation.
Test: protein stability index of a GFP-peptide fusion (GPS, HEK-293T) (PSI 1-6); higher = more stable
Settings: c terminus: a fixed tail appended
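Also: 24-mer peptide tiles fused after GFP, lentivirally expressed, FACS-sorted into six equal bins by GFP/DsRed ratio, decoded by Illumina sequencing, PSI is the read-weighted mean bin number.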

Sequence	protein stability index (treatment: DMSO)	protein stability index (treatment: MLN4924 1 uM, 8 h)
PPRKSGSFHSSGEKQKQPRWREGT [PBXIP1]	4.4 ± 0.068	4.38 ± 0.3
SVWVLRDFPEDGLKIFTEDLPEVE [VPS39]	3.55 ± 0.34	3.59 ± 0.33
GLQRNLLVENIIDIYKQECSSRPL [TRIM63]	2.71 ± 0.31	2.87 ± 0.19
GCSLTADGLPLHFFIQTVRPKDTV [MYORG]	2.3 ± 0.25	2.19 ± 0.33
IVCAQSSQSLWNRLSVLLNLLPAA [SMG5]	2.8 ± 0.31	2.99 ± 0.28
SSEAFHNYMNAAMVHINRALKLII [RTN3]	2.62 ± 0.46	2.06 ± 0.38
LVALAEQHAVQELTKAATSGVGID [RHOBTB1]	4.08 ± 0.29	4.18 ± 0.19
QPASELLQDVRVNQSRCEMKTFVS [TRIM15]	2.98 ± 0.48	3.25 ± 0.41
EIDIFNPQTVGVGRARFTTYEVRM [SNX12]	2.36 ± 0.069	2.57 ± 0.44
QYIISDLASARIIEQDAVVPSEWL [GMCL1]	2.76 ± 0.24	2.76 ± 0.25
TTMNYPLWSQSYEDSSNQEEEGPS [MAGEA3]	5.43 ± 0.11	5.36 ± 0.13
EKLQKEQKELQDVGQSLRIKEQEV [SASS6]	4.79 ± 0.94	5.29 ± 0.04
SGKESPPVSDTPDEGDEPMPIPED [IKZF1]	5.866 ± 0.015	5.71 ± 0.38
FFVSSINTLVTKTMEDTLMTVKQY [ARFIP2]	3.08 ± 0.64	3.05 ± 1
DITQEEYGEFYKSLTNDWEDHLAV [HSP90AB1]	3.85 ± 0.17	4.01 ± 0.22
LPPCAVRNLQDLARIYIRRTLRNF [PCMTD1]	2.06 ± 0.29	2.04 ± 0.26
SLNALEDQDLDALMADLVADISEA [APBB1IP]	4.58 ± 0.15	4.36 ± 0.23
TLIMLLSLAAFSVISVVSYLILAL [RTN3]	2.58 ± 0.36	2.12 ± 0.11
MKQLQQQQHSDKTSLQGLTGTPLV [ISL2]	4.01 ± 0.35	4.2 ± 0.23
CWLPLLAGLLPPVPAQKFSALTFL [SMOC2]	3.54 ± 0.15	2.82 ± 0.53
TSQEIFRQRFRHLRYQETPGPREA [ZNF232]	3.63 ± 0.36	3.6 ± 0.28
HVQKLSQECLKQLAIKKQQHIDNI [TRIM14]	3.81 ± 0.36	3.75 ± 0.12
PATTVTSPNSTPAKTIDTSPPVDL [SNAP91]	5.25 ± 0.23	5.25 ± 0.19

Sequence	protein stability index (treatment: DMSO)	protein stability index (treatment: MLN4924 1 uM, 8 h)
VLRFLPAFVRMKQLIEEGYVGEPL [GFOD1]	2.2 ± 0.25	2.17 ± 0.13
GVVHPSNEVLSSDILPRWAIIGWL [INTS3]	2.13 ± 0.41	2.18 ± 0.45
IPANVSNCNWFCEGSFNGSEKETM [KRT33B]	4.19 ± 0.15	4.07 ± 0.3
ERSVFSERTEESSAVQYFQFYGYL [CARM1]	2.08 ± 0.1	2.23 ± 0.25
EEKQHLERLNKEYQEIFQQLQRSW [TRIM43]	3.84 ± 0.23	3.77 ± 0.42
GNMANLSLHDHDGSSGASDQDTLA [DVL3]	5.42 ± 0.12	5.3 ± 0.41
KSISPWKSPPQLRQFLPEEFMKTL [DENND6A]	2.47 ± 0.088	2.61 ± 0.3
VAAALRYLQIFATRRSCIDESQIS [FAM189A2]	2.37 ± 0.37	2.41 ± 0.17
IPPYSRASLKGYQWLKDKILSEEG [KCNAB2]	2.64 ± 0.45	3.02 ± 0.54
PASPERDYSPYYKTIEELRDKILT [KRT13]	3.349 ± 0.006	3.45 ± 0.31
VSLDISPDLPFQIKPSENHYSLLT [PCDHGC5]	2.22 ± 0.31	2.46 ± 0.17
HEEEPLGTAGPLALARDLLSETAD [GMPPB]	5.38 ± 0.42	5.18 ± 0.15
ASLQASIFSGAASLGYGTNVAATG [APBB1IP]	2.95 ± 0.27	2.85 ± 0.33
LCGPHAKAPYLCEATHEPAAARIR	3.75 ± 0.2	3.61 ± 0.24
WIRICRPGSIIGPQQHFLEEKQAS [CDC14A]	2.18 ± 0.46	2.36 ± 0.48
YVRRLDFFEKPDYDYLRKLFTDLF [CSNK1G3]	2.45 ± 0.52	2.06 ± 0.27
RKSSKLIMELTGGGQESSGLNLGK [MYOZ1]	3.72 ± 0.082	3.98 ± 0.26
YPASTSQDSFEAAGNSTSGSRAGA [KCNA3]	5.21 ± 0.24	5.2 ± 0.35
PIKLELLEPKANLQAALQVLELHH [VPS39]	2.36 ± 0.41	2.41 ± 0.22
RQLALPATEQAATQESTFQELCEG [NOP53]	5.12 ± 0.16	5.22 ± 0.21
EMLREVDLNGDGTVDFDEFVMMLS [CABP4]	4.06 ± 0.25	4.17 ± 0.33
YPDAEDPQLGLDGPGEPDVRDGFS [PSD2]	5.51 ± 0.31	5.46 ± 0.084
AAARPSSCRRKQEDDRDGLLAERE [TMEM106C]	5.18 ± 0.25	5.3 ± 0.34

Sequence	protein stability index (treatment: DMSO)	protein stability index (treatment: MLN4924 1 uM, 8 h)
VEVDENAYRCGSGMQMAEDSKSLK [NET1]	4.98 ± 0.26	4.99 ± 0.31
SSSASYGGGFGGGSCQLGGGRGVS [KRT13]	3.71 ± 0.65	3.94 ± 0.36
LAMWTTALLHQAETLQPSVWFGGR [TMEM175]	3 ± 0.56	2.82 ± 0.86
SEGFESDSSHDSARASEGSDSGSD [SMG5]	5.51 ± 0.3	5.7 ± 0.1
RGTHAVVGVATADAPLHSVGYTTL [SPSB1]	2.73 ± 0.26	2.88 ± 0.14
QEIIKTTEQLIEAVNNGDFEAYAK [CAMK2B]	4.27 ± 0.17	4.26 ± 0.15
LLDATVAGGQTRLQASDRYRDLAG [FCHSD1]	3.99 ± 0.14	3.86 ± 0.12
VTKITLESFLAWKKRKRQEKIDKL [ZC3H15]	2.78 ± 0.81	2.6 ± 0.47
APGVDLSRILNEMRDQYEQMAEKN [KRT16]	4.27 ± 0.35	4.42 ± 0.16
NKSVTLYTVKDKATGEVLGQFYLD [NLN]	2.13 ± 0.3	–
AVNQKIDRESLCGASTSCLLPVQV [PCDHGC5]	2.99 ± 0.13	3.26 ± 0.65
LTFHRHPVAQSTDGIRGKVGHARG [SPSB4]	3.99 ± 0.32	3.97 ± 0.26
KRKMHLVFEYCDHTLLNELERNPN [CDKL4]	2.26 ± 0.46	2.51 ± 0.51
CGDYFPDGITNGASWYSLSKGMQD [CPN1]	2.52 ± 0.12	2.74 ± 0.14
SYMRNENVISELNIEDYFSHHLAV [FBXO39]	2.26 ± 0.23	2.4 ± 0.38
IAKHLKGRLGKQCRERWHNHLNPE [MYBL2]	2.25 ± 0.21	2.23 ± 0.13
FIDTYSDVGRYIDHYAAIKKAWDD [FBXO3]	2.6 ± 0.61	2.37 ± 0.77
VAPATMGSARSHASSRASENQSPS [ZBTB22]	4.96 ± 0.073	5.07 ± 0.14
GPLPQSFDKEWVAKQTKRMLDMKV [COX4I1]	3.86 ± 0.15	3.86 ± 0.31
SGPMQAALQAAAHASVDIKDVLDF [SMG5]	4.42 ± 0.17	4.18 ± 0.1
PFKAYLDVDITLSSEAFHNYMNAA [RTN3]	2.92 ± 0.44	2.71 ± 0.72
PVRAAASSPVTTLTQTMHDLAGLG [CDC25B]	4.03 ± 0.24	3.93 ± 0.19
TSIEPSKSSIIPFRALKRPLQFLG [ZER1]	2.42 ± 0.38	2.22 ± 0.16

Sequence	protein stability index (treatment: DMSO)	protein stability index (treatment: MLN4924 1 uM, 8 h)
WAPASEGLKPGPEDGPGKEEAPEL [SERTAD1]	5.5 ± 0.2	5.46 ± 0.41
LGKLEATIKSLSAELLKANEIIKK [SASS6]	2.44 ± 0.34	2.68 ± 0.16
STLVEVTLGEVPAAESPDPPQSPQ [MAGEA3]	5.39 ± 0.14	5.27 ± 0.17
PLSSDIQVITQTGVPGQPLNFKAE [PTPRD]	4.66 ± 0.17	4.51 ± 0.26
SSKSRAAPSPQEALVRLRETEEML [CHMP4C]	2.79 ± 0.58	3.45 ± 0.81
SRVNNASYCPHCGEESSKAKEVTI [EHMT1]	3.39 ± 0.14	3.37 ± 0.32
SVRILGSLVAILLVFLITAILVKV [SLC29A1]	2.9 ± 0.44	2.85 ± 0.66
LYAKMIQKLADLRSLNEEHSKQYR [VDR]	2.15 ± 0.41	2.19 ± 0.22
TITAPPSRVLQNGGDKLETMPLYL [SCD]	3.5 ± 0.41	3.43 ± 0.29
ILNSMNSLRKSNTLCDVTLRVEQK [KLHL12]	2.65 ± 0.18	2.9 ± 0.33
VAEITKQLPPVVPVSKPGALRRSL [TCAP]	5.15 ± 0.15	5.2 ± 0.29
PTGEGSISHEEQKSVRLARELESR [CHCHD6]	5.33 ± 0.17	5.35 ± 0.33
EFFSANAISDQLLGAGSDLKDFTL [ADAMTSL2]	2.97 ± 0.26	3.22 ± 0.42
TQEKKRLSRTNEELLWKLQTGDPT [MTUS2]	4.46 ± 0.34	4.36 ± 0.11
PSAILRTPESTKPGPVCQPPVSQS [ANKRD40]	4.59 ± 0.23	4.45 ± 0.18
IEFNPRIGKWFDFKLFFNGRPGIV [DHCR7]	2.63 ± 0.44	2.91 ± 0.91
DTDKLLNSASDPSLKDGLSDSDSE [PSD2]	5.45 ± 0.36	5.57 ± 0.074
LDPVAETAIRQLTEPSGRVAKKTP [C2CD2L]	5.66 ± 0.17	5.18 ± 0.47
IVETLCIIWFSFELVVRFFACPSK [KCNA1]	3.11 ± 0.19	3.15 ± 0.32
LVEDMVSQEEAQGLPSSELDAVEN [ZNF24]	5.5 ± 0.48	5.43 ± 0.15

Reference: the supplement of paper PMC10567573
